T1: human IL-4 (human, UniProt P05112 25-153)
T1 sequence (looked up): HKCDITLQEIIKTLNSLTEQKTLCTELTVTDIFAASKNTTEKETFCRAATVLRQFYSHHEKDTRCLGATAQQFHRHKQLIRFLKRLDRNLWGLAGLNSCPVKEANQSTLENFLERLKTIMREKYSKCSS

T2: IL-33 (mm2), human IL-33 variant with all four cysteines changed to serine (human, UniProt O95760 112-270, limits assumed)
T2 sequence (looked up): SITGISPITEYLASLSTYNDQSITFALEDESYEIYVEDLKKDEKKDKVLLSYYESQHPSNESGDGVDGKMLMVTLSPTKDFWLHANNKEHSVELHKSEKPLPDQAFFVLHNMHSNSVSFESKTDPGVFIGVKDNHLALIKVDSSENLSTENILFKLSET

T3: human IL-4 (human, UniProt P05112 25-153)
T3 sequence (looked up): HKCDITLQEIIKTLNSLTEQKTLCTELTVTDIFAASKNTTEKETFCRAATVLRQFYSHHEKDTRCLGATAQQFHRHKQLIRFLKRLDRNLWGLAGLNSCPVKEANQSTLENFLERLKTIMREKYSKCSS


Legend:
Assay in all cases: cell-based or functional assay
human IL-13 [1] = target: human IL-13 (human, UniProt P35225 35-146)
human IL-4 [2] = target: T1, human IL-4
human TSLP (long form) = human TSLP (long form) (human, UniProt Q969D9 29-159, Biotinylated on the Avi tag in some assays; glycosylated (Expi293F expression))
[3] = target: T2, IL-33 (mm2), human IL-33 variant with …
human IL-13 [4] = target: human IL-13 (human, UniProt P35225 35-146); remark: listed apart in the source
human IL-4 [5] = target: T3, human IL-4; remark: listed apart in the source
[6] = target: T4, recombinant human TSLP (glycosylated long form) (human, UniProt Q969D9 29-159)
[7] = target: T4, recombinant human TSLP (glycosylated …); remark: listed apart in the source

| IC50, IL-13-induced CCL17 secretion by 769-P cells (human IL-13 [1]) [nM] | IC50, IL-4-induced CCL17 secretion by 769-P cells (human IL-4 [2]) [nM] | TARC bioassay (IC50, pM) [6] [pM] | Binder | further results |
| --- | --- | --- | --- | --- |
|  |  | 6.65 | TSLP-0260 (antibody, V domains shown) VH: QMQLVESGGGVVQPGRSLRLSCAASGFTFRTYGMHWVRQAPGKGLEWVAVIWYDGSNKHYADSVKGRFTISRDNSKNTLYLQMNSLRAEDTAVYYCARAPQWYLVHEAFDIWGQGTMVTVSS VL: SYVLTQPPSVSVAPGQTARITCGGNNLGSKSVHWYQQKPGQAPVLVVYDDSDRPSWIPERFSGSNSGNTATLTISRGEAGDEADYYCQVWDESSDHVVFGGGTKLTVLG | a-TSLP TARC bioassay (fold change to TSLP-0001) [7]: 3.4 fold |
|  |  | 4.25 | TSLP-0156 (antibody, human IgG1, lambda, V domains shown) VH: QMQLVESGGGVVQPGRSLRLSCAASGFTFRTYGMHWVRQAPGKGLEWVAVIWYDGSNKHYADSVKGRFTISRDNSKNTLYLQMNSLRAEDTAVYYCARAPQWYLVHEAFDIWGQGTMVTVSS VL: SYVLTQPPSVSVAPGQTARITCGGNNLGSKSVHWYQQKPGQAPVLVVYDDSDRPSWIPERFSGSNSGNTATLTISRGEAGDEADYYCQVWDSSSDHVVFGGGTKLTVLG |  |

The remaining lines, values behind:

| Binder | IC50, IL-13-induced CCL17 secretion by 769-P cells (human IL-13 [1]) [nM] | IC50, IL-4-induced CCL17 secretion by 769-P cells (human IL-4 [2]) [nM] | TARC bioassay (IC50, pM) [6] [pM] | further results |
| --- | --- | --- | --- | --- |
| IL413TSLP-1028 (trispecific antibody) heavy: not shown chain 1: DIQMTQSPSSLSASVGDRVTITCKASESVDHFGWSLVHWYQQKPGKAPKLLIYRASNLESGVPSRFSGSGSGTDFTLTISSLQPEDFATYYCQQSNEDPWTFGGGTKVEIKRTVAAPSVFIFPPSDEQLKSGTASVVCLLNNFYPREAKVQWKVDNALQSGNSQESVTEQDSKDSTYSLSSTLTLSKADYEKHKVYACEVTHQGLSSPVTKSFNRGECGGGGSEVTLRESGPALVKPTQTLTLTCTFSGFSLSNFGEGLSWIRQPPGKGLEWLAHIYWDDDKRYNPSLKSRLTISKDTSRNQVVLTMTNMDPVDTATYYCARRETVFYWYFDVWGQGTTVTVSSASTKGPSVFPLAPSSKSTSGGTAALGCLVKDYFPEPVTVSWNSGALTSGVHTFPAVLQSSGLYSLSSVVTVPSSSLGTQTYICNVNHKPSNTKVDKKVEPKSCEKTHTCPPCPAPEAAGAPSVFLFPPKPKDTLMISRTPEVTCVVVDVSHEDPEVKFNWYVDGVEVHNAKTKPREEQYNSTYRVVSVLTVLHQDWLNGKEYKCKVSNKALPAPIEKTISKAKGQPREPQVYTLPPSREEMTKNQVSLTCEVKGFYPSDIAVEWESNGQPENNYKTTPPVLDSDGSFFLYSKLTVDKSRWQQGNVFSCSVLHEALHSHYTQKSLSLSPGK light 1: SYVLTQPPSVSVAPGQTARITCGGNNLGSKSVHWYQQKPGQAPVLVVYDDSDRPSWIPERFSGSNSGNTATLTISRGEAGDEADYYCQVWDSSSKHVVFGGGTKLTVLGQPKAAPSVTLFPPSSEELQANKATLVCLISDFYPGAVTVAWKADSSPVKAGVETTTPSKQSNNKYAASSYLSLTPEQWKSHRSYSCQVTHEGSTVEKTVAPTECS light 2: DIQMTQSPSSLSASVGDRVTITCRASQSVDEEGDSYMNWYQQKPGKAPKLLIYAASNLESGVPSRFSGSGSGTDFTLTISSLQPEDFATYYCQQSNKDPPTFGGGTKVEIKRTVAAPSVFIFPPSDEQLKSGTASVVCLLNNFYPREAKVQWKVDNALQSGNSQESVTEQDSKDSTYSLSSTLTLSKADYEKHKVYACEVTHQGLSSPVTKSFNRGEC chain 2: EVQLVESGGGLVQPGGSLRLSCAASGFTFSSYAMSWVRQAPGKGLEWVASISSGDTTYYPDSVKGRFTISRDNAKNSLYLQMNSLRAEDTAVYYCARNEGYYFGLTLWGQGTLVTVSSASTKGPSVFPLAPSSKSTSGGTAALGCLVKDYFPEPVTVSWNSGALTSGVHTFPAVLQSSGLYSLSSVVTVPSSSLGTQTYICNVNHKPSNTKVDKKVEPKSC | 0.811 | 0.139 |  | fold lower potency than the mAb (TSLP-0855), monocyte TARC bioassay (human TSLP (long form)): ~2.5 fold |
| IL413TSLP-1037 (trispecific antibody) heavy: not shown chain 1: DIQMTQSPSSLSASVGDRVTITCKASESVDHFGWSLVHWYQQKPGKAPKLLIYRASNLESGVPSRFSGSGSGTDFTLTISSLQPEDFATYYCQQSNEDPWTFGGGTKVEIKRTVAAPSVFIFPPSDEQLKSGTASVVCLLNNFYPREAKVQWKVDNALQSGNSQESVTEQDSKDSTYSLSSTLTLSKADYEKHKVYACEVTHQGLSSPVTKSFNRGECGGGGSEVTLRESGPALVKPTQTLTLTCTFSGFSLSNFGEGLSWIRQPPGKGLEWLAHIYWDDDKRYNPSLKSRLTISKDTSRNQVVLTMTNMDPVDTATYYCARRETVFYWYFDVWGQGTTVTVSSASTKGPSVFPLAPSSKSTSGGTAALGCLVKDYFPEPVTVSWNSGALTSGVHTFPAVLQSSGLYSLSSVVTVPSSSLGTQTYICNVNHKPSNTKVDKKVEPKSCEKTHTCPPCPAPEAAGAPSVFLFPPKPKDTLMISRTPEVTCVVVDVSHEDPEVKFNWYVDGVEVHNAKTKPREEQYNSTYRVVSVLTVLHQDWLNGKEYKCKVSNKALPAPIEKTISKAKGQPREPQVYTLPPSREEMTKNQVSLTCEVKGFYPSDIAVEWESNGQPENNYKTTPPVLDSDGSFFLYSKLTVDKSRWQQGNVFSCSVLHEALHSHYTQKSLSLSPGK light 1: SYVLTQPPSVSVAPGQTARITCGGNNLGSKSVHWYQQKPGQAPVLVVYDDKDRPSWIPERFSGSNSGNTATLTISRGEAGDEADYYCQVWDKSSDHVVFGGGTKLTVLGQPKAAPSVTLFPPSSEELQANKATLVCLISDFYPGAVTVAWKADSSPVKAGVETTTPSKQSNNKYAASSYLSLTPEQWKSHRSYSCQVTHEGSTVEKTVAPTECS light 2: DIQMTQSPSSLSASVGDRVTITCRASQSVDEEGDSYMNWYQQKPGKAPKLLIYAASNLESGVPSRFSGSGSGTDFTLTISSLQPEDFATYYCQQSNKDPPTFGGGTKVEIKRTVAAPSVFIFPPSDEQLKSGTASVVCLLNNFYPREAKVQWKVDNALQSGNSQESVTEQDSKDSTYSLSSTLTLSKADYEKHKVYACEVTHQGLSSPVTKSFNRGEC chain 2: EVQLVESGGGLVQPGGSLRLSCAASGFTFSSYAMSWVRQAPGKGLEWVASISSGDTTYYPDSVKGRFTISRDNAKNSLYLQMNSLRAEDTAVYYCARNEGYYFGLTLWGQGTLVTVSSASTKGPSVFPLAPSSKSTSGGTAALGCLVKDYFPEPVTVSWNSGALTSGVHTFPAVLQSSGLYSLSSVVTVPSSSLGTQTYICNVNHKPSNTKVDKKVEPKSC | 0.593 | 0.179 |  | fold lower potency than the mAb (TSLP-0871), monocyte TARC bioassay (human TSLP (long form)): ~2.5 fold |
| IL13433-0005 (other) heavy: EVTLRESGPALVKPTQTLTLTCTFSGFSLSNFGEGLSWIRQPPGKGLEWLAHIYWDDDKRYNPSLKSRLTISKDTSRNQVVLTMTNMDPVDTATYYCARRETVFYWYFDVWGQGTTVTVSSASTKGPSVFPEAPSSKSTSGGTAALGCLVKDYFPEPVTVSWNSGALTSGVHTFPAVLQSSGLYSLGSVVTVPSSSLGTQTYICNVNHKPSNTKVDKKVEPKSCDKTHTCPPCPAPEAAGAPSVFLFPPKPKDTLMISRTPEVTCVVVDVSHEDPEVKFNWYVDGVEVHNAKTKPREEQYNSTYRVVSVLTVLHQDWLNGKEYKCKVSNKALPAPIEKTISKAKGQPREPQVYTLPPCREEMTKNQVSLSCAVKGFYPSDIAVEWESNGQPENNYKTTPPVLDSDGSFFLVSKLTVDKSRWQQGNVFSCSVMHEALHNHYTQKSLSLSPGK chain 1: DIQMTQSPSSLSASVGDRVTITCKASQNINKHLDWYQQKPGKAPKLLIYFTNNLQTGVPSRFSGSGSGTDFTLTISSLQPEDFATYYCFQYNQGWTFGGGTKVEIKRTVAAPSVFIFPPSDEQLKSGTASVVCLLNNFYPREAKVQWKVDNALQSGNSQESVTEQDSKDSTYSLSSTLTLSKADYEKHKVYACEVTHQGLSSPVTKSFNRGECGGGGSEVQLVESGGGLVQPGGSLRLSCAASGFTFSSYAMSWVRQAPGKGLEWVASISSGDTTYYPDSVKGRFTISRDNAKNSLYLQMNSLRAEDTAVYYCARNEGYYFGLTLWGQGTLVTVSSASTKGPSVFPKAPSSKSTSGGTAALGCLVKDYFPEPVTVSWNSGALTSGVHTFPAVLQSSGLYSLSSSVTVPSSSLGTQTYICNVNHKPSNTKVDKKVEPKSCDKTHTCPPCPAPEAAGAPSVFLFPPKPKDTLMISRTPEVTCVVVDVSHEDPEVKFNWYVDGVEVHNAKTKPREEQYNSTYRVVSVLTVLHQDWLNGKEYKCKVSNKALPAPIEKTISKAKGQPREPQVCTLPPSREEMTKNQVSLWCLVKGFYPSDIAVEWESNGQPENNYKTTPPVLDSDGSFFLYSKLTVDKSRWQQGNVFSCSVMHEALHNHYTQKSLSLSPGK light 1: DIQMTQSPSSLSASVGDRVTITCKASQSVDEDGDSYMNWYQQKPGKAPKLLIYAASNLESGVPSRFSGSGSGTDFTLTISSLQPEDFATYYCQQSNEDPPTFGGGTKVEIKRTVAAPSVFIFPPSDEQLKSGTASVSCLLNNFYPREAKVQWKVDNALQSGNSQESVTEQDSKDSTYSLKSTLTLSKADYEKHKVYACEVTHQGLSSPVTKSFNRGEC light 2: DIQMTQSPSSLSASVGDRVTITCKASESVDHFGWSLVHWYQQKPGKAPKLLIYRASNLESGVPSRFSGSGSGTDFTLTISSLQPEDFATYYCQQSNEDPWTFGGGTKVEIKRTVAAPSVFIFPPSDEQLKSGTASVSCLLNNFYPREAKVQWKVDNALQSGNSQESVTEQDSKDSTYSLDSTLTLSKADYEKHKVYACEVTHQGLSSPVTKSFNRGEC chain 2: EVQLVESGGGLVQPGGSLRLSCAASGFTFSSYWMYWVRQAPGKGLEWVAAITPNAGEDYYPESVKGRFTISRDNAKNSLYLQMNSLRAEDTAVYYCARGHYYYTSYSLGYWGQGTLVTVSSASTKGPSVFPLAPSSKSTSGGTAALGCLVKDYFPEPVTVSWNSGALTSGVHTFPAVLQSSGLYSLSSVVTVPSSSLGTQTYICNVNHKPSNTKVDKKVEPKSC |  |  |  | a-IL-33 bioassay cys mutant IL33) IC50 (pM) [3]: 45 pM; a-hIL-13 bioassay (IC50, pM) (human IL-13 [4]): 12.5 pM; a-hIL-4 bioassay IC50, pM) (human IL-4 [5]): 3.2 pM |

From patent publication US20240117030A1 (Pfizer, published 2024)
